± gives the uncertainty stated by the source.

This data set is described as follows: amyloid nucleation score (Sup35N fusion, yeast selection) (log enrichment); library NNK3; higher = more nucleation; inactive = no reads after selection. Summed up:
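Libraries of peptides of 20 random codons fused to Sup35N were expressed in psi-negative yeast and induced 24 hours with 100 μM copper sulfate. Selection was 7 days at 30°C on medium lacking adenine and uracil, and plasmid inserts were Illumina-sequenced before and after selection. Nucleation score is the DiMSum log enrichment of output over input reads, centred on the mode score of non-aggregating sequences, and sequences with under 100 input reads were left out.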
For the substance AACHINNICKSLVL, the amyloid nucleation score entry is “inactive”.

On to AANLDYSRLLEVLE, for which the amyloid nucleation score result is “inactive”.

AAPCFVKLLHGLVVRVQVVM: the amyloid nucleation score result is “inactive”.

For the substance AATYTTYHLESSNVYSFNFW, the amyloid nucleation score stood at 2.96 ± 0.048.

On to AAYAALQMSK, for which the amyloid nucleation score entry is “inactive”.

AAYADR had an amyloid nucleation score of 0.008 ± 0.48.

In the case of ACFLIYYLR, the amyloid nucleation score entry was “inactive”.

ACGFSFF gave an amyloid nucleation score of -0.264 ± 0.98.

For ACLFCLGDWEGFVSD, the amyloid nucleation score entry was “inactive”.

Consider ACRGLVDVNNWLSGYGIRIG, for which the amyloid nucleation score entry is “inactive”.

For ACTLLCFRIAQLEFLWVRVD, the amyloid nucleation score entry is “inactive”.

With ACVRKIIKVGYFYERISIRV, the amyloid nucleation score result was “inactive”.

For the substance ACVSGIIFLLREQLLKMSGI, the amyloid nucleation score result was “inactive”.

Consider ACYFWFNINIEHAR, for which the amyloid nucleation score was determined as 1.78 ± 0.11.

For ADCGHLTYLSSNSRSLGRRK, the amyloid nucleation score came out at 0.197 ± 1.

Regarding ADERRVIR, the amyloid nucleation score entry is “inactive”.

Turning to ADIRFKMRENDMFWSNGWGH, the amyloid nucleation score entry was “inactive”.

Turning to ADWYWFMAMQRNNLL, the amyloid nucleation score entry is “inactive”.

For AEGLCCMANLWSCAGSRTYT, the amyloid nucleation score turned out to be 0.947 ± 0.13.

For the substance AESEVDKCLDRGYGAEKTCT, the amyloid nucleation score entry is “inactive”.

As to AEWFAKLLASTMGLIFERRW, the amyloid nucleation score entry was “inactive”.

As for AFAFYSD, the amyloid nucleation score result was “inactive”.

Regarding AFKGRLLG, the amyloid nucleation score entry was “inactive”.

In the case of AFLGEEVNSTLLKS, the amyloid nucleation score entry was “inactive”.

AFLSMSGNLLVVYSGEGGSP had an amyloid nucleation score of -0.027 ± 0.35.

As to AFQMCATGRRIDTGDVSFVV, the amyloid nucleation score entry was “inactive”.

On to AFRGCSSLYS, for which the amyloid nucleation score entry was “inactive”.

In the case of AFRTFSFLGITS, the amyloid nucleation score entry is “inactive”.

For AFTHVTSVMTVQDSLGLCLL, the amyloid nucleation score result was “inactive”.

As to AFVDAQQVNGLYGWYDSKCD, the amyloid nucleation score entry was “inactive”.

Regarding AFVRMLW, the amyloid nucleation score was determined as 1.49 ± 0.13.

As to AFYCVSGIDYVS, the amyloid nucleation score result is “inactive”.

On to AGAVYVTAPLIAREDVVACY, for which the amyloid nucleation score entry was “inactive”.

In turn, AGFRKTMWCIQPVSFLLLKF yielded an amyloid nucleation score of 1.74 ± 0.1.

Consider AGGAMGVHRCPLLS, for which the amyloid nucleation score entry was “inactive”.

In the case of AGNAFVDR, the amyloid nucleation score result is “inactive”.

Turning to AGVIAWVYSSG, the amyloid nucleation score entry was “inactive”.

Substance AGVVHRWGLQCFSLNFECGC registered an amyloid nucleation score of 2.08 ± 0.079.

Turning to AHFLLCNLA, the amyloid nucleation score result is “inactive”.

In turn, AHGFLSVFV had an amyloid nucleation score of 0.92 ± 0.12.

In the case of AHITRGNKSGAVFASCRTWS, the amyloid nucleation score result is “inactive”.

For AHKIVFELTYTVLS, the amyloid nucleation score result was “inactive”.

Turning to AHLTSVYVKTPSFEINISNK, the amyloid nucleation score result was “inactive”.

Consider AHSRWVSQCDITR, for which the amyloid nucleation score result was “inactive”.

Regarding AHWSEYDAKFTKRLV, the amyloid nucleation score entry was “inactive”.

As for AICVLRSMKLLYQVWTW, the amyloid nucleation score entry is “inactive”.

As for AIIVCDC, the amyloid nucleation score result was “inactive”.

Regarding AIIVQLIDLLMRPARPVFVE, the amyloid nucleation score result is “inactive”.

For AIPLYWIEFRVRKLSSLFLQ, the amyloid nucleation score result was “inactive”.

Take AIVCMHYQVVHCVKVSTCCY: the amyloid nucleation score result is “inactive”.

For the substance AKAEC, the amyloid nucleation score entry is “inactive”.

AKARMNGEDGARLTSMHSLY: the amyloid nucleation score entry was “inactive”.

AKMNYKLWRDVA: the amyloid nucleation score result was “inactive”.

Substance AKTSRMNFKNNFMCQGCKWS gave an amyloid nucleation score of -0.604 ± 0.88.

AKVRLDGSIGEVHFMELVSY: the amyloid nucleation score entry was “inactive”.

Substance ALCCVRPFGNEDKREVMYSN yielded an amyloid nucleation score of 0.604 ± 0.24.

In the case of ALDMVLYL, the amyloid nucleation score entry was “inactive”.

In turn, ALGIICVGLAFDGSLDLTS showed an amyloid nucleation score of 1.25 ± 0.15.

With ALIKFLEFKGRSAWSMRFIA, the amyloid nucleation score result is “inactive”.

Take ALIYNATGLTYF: the amyloid nucleation score entry was “inactive”.

Regarding ALLFHLG, the amyloid nucleation score result was “inactive”.

As to ALMRVSSLCHLSGKVCLTLA, the amyloid nucleation score result is “inactive”.

Take ALNFPYSSRVFYFKDSAHAF: the amyloid nucleation score result was “inactive”.

Turning to ALNWISYREMHIFIAYFADS, the amyloid nucleation score result is “inactive”.

Consider ALSNYVFLEVTLQTWVVIEV, for which the amyloid nucleation score result is “inactive”.

Take ALSYLSVLRSMLSRVVLCYL: the amyloid nucleation score entry is “inactive”.

As for ALVCYK, the amyloid nucleation score entry is “inactive”.

Regarding AMCALVSIRP, the amyloid nucleation score result was “inactive”.

For AMFFYRWRCVGTGSFVMTGV, the amyloid nucleation score result is “inactive”.

Turning to AMILVRVYGVKRVWAYLLVW, the amyloid nucleation score result was “inactive”.

On to AMKPMKNRSASLVGN, for which the amyloid nucleation score entry is “inactive”.

As for AMLLGFLGCGCKLHACCDY, the amyloid nucleation score result is “inactive”.

AMMHNIILFKFVLGYVLMSR: the amyloid nucleation score result was “inactive”.

In turn, ANCSWWSWESMNCCYIGWIF had an amyloid nucleation score of 1.54 ± 0.071.

Consider ANGNNSLTATLTNAVD, for which the amyloid nucleation score result is “inactive”.

On to ANKSCGHVDWDIGESYMARL, for which the amyloid nucleation score entry was “inactive”.

In turn, ANLIIVSVHFPRITTCYNNP registered an amyloid nucleation score of 1.95 ± 0.068.

In the case of ANRKSRVKSEEWAEVNGCWG, the amyloid nucleation score entry is “inactive”.

In turn, ANSSRDMCSLLVLVRGTQ gave an amyloid nucleation score of -0.385 ± 0.96.

As for ANSWIILHSNHFLQFVGIAS, the amyloid nucleation score result is “inactive”.

With ANSWSMLHVECFYML, the amyloid nucleation score was 2.44 ± 0.058.

As for ANVCGVL, the amyloid nucleation score result was “inactive”.

For ANVRMS, the amyloid nucleation score result was “inactive”.

As to APDFATIFITRWGDIQTLLV, the amyloid nucleation score entry was “inactive”.

Consider APENKVYVRAQVKTACKFRG, for which the amyloid nucleation score turned out to be 0.213 ± 0.81.

As to APFRMLAFGMWEALMAGSNS, the amyloid nucleation score entry was “inactive”.

As to APRRHVKGDSHIRWCVRDR, the amyloid nucleation score result is “inactive”.

As for AQAVHAEVVQFILYFGESPL, the amyloid nucleation score was found to be 2.47 ± 0.08.

AQFGQTWFANFTSVFYCWSE: the amyloid nucleation score was determined as 2.06 ± 0.064.

Consider AQGVTHLWEARNLWVWVEDQ, for which the amyloid nucleation score is -0.316 ± 0.51.

ARATALAVFCIGTDYGSIES had an amyloid nucleation score of -0.319 ± 0.37.

Take ARLEMVFLPSPIFVNRPGNA: the amyloid nucleation score result is “inactive”.

With ARLSEAVLGNVSDIGRVCNL, the amyloid nucleation score entry was “inactive”.

As for ARQYAIRWMWSVVIDGGEKS, the amyloid nucleation score result is “inactive”.

In the case of ARYETRMYKFKNTPGVAERR, the amyloid nucleation score entry was “inactive”.

With ARYRHGFTALRND, the amyloid nucleation score result is “inactive”.

In the case of ASFLVYGP, the amyloid nucleation score result is “inactive”.

Turning to ASGVATSFGFRLWSCVEDIE, the amyloid nucleation score result is “inactive”.

For the substance ASLRDAPILYDASE, the amyloid nucleation score result was “inactive”.

Regarding ASRKVTRVVMHINLRLWYET, the amyloid nucleation score entry is “inactive”.

Substance ASRPFFRPVRQVSEVLPGQW came in with an amyloid nucleation score of 0.058 ± 1.1.

Consider ASSLVVVCDAMSEASVLNKG, for which the amyloid nucleation score result is “inactive”.

ASTLLHYCLLNSGYEWSGQC yielded an amyloid nucleation score of 0.251 ± 0.81.

In turn, ATEDPKLESGCVAEIVPFRG had an amyloid nucleation score of -0.481 ± 1.4.

Take ATELYLGVICNKMRW: the amyloid nucleation score entry is “inactive”.

On to ATGDNNLGIMAMALYT, for which the amyloid nucleation score entry was “inactive”.

On to ATNLSYLNSAQVWLLT, for which the amyloid nucleation score entry was “inactive”.

For the substance ATYAGSVITGLCEDTLYRNC, the amyloid nucleation score result was “inactive”.

With AVCCCGRNIHMRSCRPGTTL, the amyloid nucleation score stood at 0.531 ± 0.16.

In the case of AVDLNVTLQWVCSRGRRWVF, the amyloid nucleation score stood at 0.051 ± 0.3.

Consider AVFGCFWFAMGLSFLYAKSL, for which the amyloid nucleation score result was “inactive”.

On to AVHFGLYFLMRVITMC, for which the amyloid nucleation score entry was “inactive”.

For the substance AVIFFYRVISFLRWSFTLPV, the amyloid nucleation score entry was “inactive”.

Take AVLKILFVRPCYVINMSLKY: the amyloid nucleation score was 0.199 ± 0.64.

As for AVMLREITNIRTKRSRNAMM, the amyloid nucleation score result was “inactive”.

On to AVNCESSCCECYGTFMDKPV, for which the amyloid nucleation score result is “inactive”.

As to AVRVEVLGLWYHLKCCWCFL, the amyloid nucleation score was -0.755 ± 1.9.

AVSLTW: the amyloid nucleation score entry was “inactive”.

In turn, AWAVEATRFILLRWGQGTWD showed an amyloid nucleation score of -0.247 ± 1.3.

As for AWCKGV, the amyloid nucleation score result is “inactive”.

On to AWMCIHLYICCMILCGRRGW, for which the amyloid nucleation score result is “inactive”.

For the substance AWMVFCPCKMCMCRCYL, the amyloid nucleation score stood at 1.41 ± 0.073.

AWSVIMCFIWNRCKRRSS: the amyloid nucleation score entry is “inactive”.

Consider AYADHHYRAGLRFPAGEVYW, for which the amyloid nucleation score entry is “inactive”.

AYCGACFNLSAYTSKCLELM: the amyloid nucleation score result was “inactive”.

Substance AYGRVTMCIGWKDPYGRCL had an amyloid nucleation score of 0.638 ± 0.31.

For the substance AYIDNRSYVCDALKCLW, the amyloid nucleation score came out at 2.92 ± 0.055.

With AYKMTFWVQNYVFVYSFLFV, the amyloid nucleation score was 0.419 ± 0.23.

As to AYNLSLNYDGHSSYWYFHTT, the amyloid nucleation score was -0.134 ± 0.38.

Turning to AYQCHDDVVWWRCQMASCS, the amyloid nucleation score result was “inactive”.

Take AYRAITGSCVMSEVRGAWRL: the amyloid nucleation score entry is “inactive”.

As for AYRRKLISGFIWERFLFRCG, the amyloid nucleation score result is “inactive”.

The values above are taken from the supplement of paper PMC12042874.
